The results in this text go back to PMC3604124, “Glyceraldehyde-3-Phosphate Dehydrogenase Interacts with Proapoptotic Kinase Mst1 to Promote Cardiomyocyte Apoptosis” (PLoS ONE, 2013).

The target of this experiment is T1, Myc-tagged Mst1 (UniProt Q13043 1-487).
T1 sequence (looked up): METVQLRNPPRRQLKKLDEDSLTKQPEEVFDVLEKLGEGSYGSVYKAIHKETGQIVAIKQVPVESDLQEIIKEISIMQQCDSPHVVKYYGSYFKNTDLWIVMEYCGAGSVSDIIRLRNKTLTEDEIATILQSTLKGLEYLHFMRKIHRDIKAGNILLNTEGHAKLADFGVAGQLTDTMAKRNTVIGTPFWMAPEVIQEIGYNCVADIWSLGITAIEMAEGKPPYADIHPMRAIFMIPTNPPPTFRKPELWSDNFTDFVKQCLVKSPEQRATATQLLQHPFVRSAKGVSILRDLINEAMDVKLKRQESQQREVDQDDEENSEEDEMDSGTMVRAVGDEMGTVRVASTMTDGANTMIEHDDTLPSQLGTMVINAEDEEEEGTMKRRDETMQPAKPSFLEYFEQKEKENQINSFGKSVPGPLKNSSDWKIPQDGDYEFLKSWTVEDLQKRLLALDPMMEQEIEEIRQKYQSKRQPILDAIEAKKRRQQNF
As to the kind of experiment: cell-based or functional assay.

B1: FLAG-tagged GAPDH (enzyme)
chain: not shown
For the molecule B1, the “in vitro kinase assay of Mst1 immunoprecipitated from HEK293T cells transfected with Myc-Mst1 with or without Flag-GAPDH: Mst1 autophosphorylation and MBP phosphorylation, increase with GAPDH” value is about 2 fold.
